From patent publication US20090099029A1, “Methods and substrates for conducting assays” (Invitrogen Corporation, priority 2005, published 2009)

Tested on: kinases of Table 6 on Myelin Basic Protein (MBP)
Experiment: Kinase assay using MBP substrate, ProQ Diamond stain (Table 6)
Type: biochemical
Settings: kinase printed on MBP-coated slide; 20 uM ATP, 30° C.; ProQ Diamond Microarray Stain; graded Strong/Weak/Negative
Procedure, shortened: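 Bovine dephosphorylated MBP coated on aldehyde- or epoxy-glass slides, kinases printed on top; reaction buffer pH 7.5 with 4 mM MgCl2, 20 uM ATP, 5% DMSO, ± inhibitor, at 30° C. Phosphorylation detected by ProQ Diamond stain, 30 min in dark.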

B1: PAK1 (protein)
chain: MSNNGLDIQDKPPAPPMRNTSTMIGAGSKDAGTLNHGSKPLPPNPEEKKKKDRFYRSILPGDKTNKKKEKERPEISLPSDFEHTIHVGFDAVTGEFTGMPEQWARLLQTSNITKSEQKKNPQAVLDVLEFYNSKKTSNSQKYMSFTDKSAEDYNSSNALNVKAVSETPAVPPVSEDEDDDDDDATPPPVIAPRPEHTKSVYTRSVIEPLPVTPTRDVATSPISPTENNTTPPDALTRNTEKQKKKPKMSDEEILEKLRSIVSVGDPKKKYTRFEKIGQGASGTVYTAMDVATGQEVAIKQMNLQQQPKKELIINEILVMRENKNPNIVNYLDSYLVGDELWVVMEYLAGGSLTDVVTETCMDEGQIAAVCRECLQALEFLHSNQVIHRDIKSDNILLGMDGSVKLTDFGFCAQITPEQSKRSTMVGTPYWMAPEVVTRKAYGPKVDIWSLGIMAIEMIEGEPPYLNENPLRALYLIATNGTPELQNPEKLSAIFRDFLNRCLEMDVEKRGSAKELLQHQFLKIAKPLSSLTPLIAAAKEATKNNH
modifications: left off: a dimerising Fc or GST
  MBP Kinase Activity: Negative

B2: NEK2 (protein)
chain: MPSRAEDYEVLYTIGTGSYGRCQKIRRKSDGKILVWKELDYGSMTEAEKQMLVSEVNLLRELKHPNIVRYYDRIIDRTNTTLYIVMEYCEGGDLASVITKGTKERQYLDEEFVLRVMTQLTLALKECHRRSDGGHTVLHRDLKPANVFLDGKQNVKLGDFGLARILNHDTSFAKTFVGTPYYMSPEQMNRMSYNEKSDIWSLGCLLYELCALMPPFTAFSQKELAGKIREGKFRRIPYRYSDELNEIITRMLNLKDYHRPSVEEILENPLIADLVADEQRRNLERRGRQLGEPEKSQDSSPVLSELKLKEIQLQERERALKAREERLEQKEQELCVRERLAEDKLARAENLLKNYSLLKERKFLSLASNPELLNLPSSVIKKKVHFSGESKENIMRSENSESQLTSKSKCKDLKKRLHAAQLRAQALSDIEKNYQLKSRQILGMR
modifications: left off: small tags and cut ends
  MBP Kinase Activity: Strong

B3: PAK3 (protein)
chain: MSDGLDNEEKPPAPPLRMNSNNRDSSALNHSSKPLPMAPEEKNKKARLRSIFPGGGDKTNKKKEKERPEISLPSDFEHTIHVGFDAVTGEFTGIPEQWARLLQTSNITKLEQKKNPQAVLDVLKFYDSKETVNNQKYMSFTSGDKSAHGYIAAHPSSTKTASEPPLAPPVSEEEDEEEEEEEDENEPPPVIAPRPEHTKSIYTRSVVESIASPAVPNKEVTPPSAENANSSTLYRNTDRQRKKSKMTDEEILEKLRSIVSVGDPKKKYTRFEKIGQGASGTVYTALDIATGQEVAIKQMNLQQQPKKELIINEILVMRENKNPNIVNYLDSYLVGDELWVVMEYLAGGSLTDVVTETCMDEGQIAAVCRECLQALDFLHSNQVIHRDIKSDNILLGMDGSVKLTDFGFCAQITPEQSKRSTMVGTPYWMAPEVVTRKAYGPKVDIWSLGIMAIEMVEGEPPYLNENPLRALYLIATNGTPELQNPERLSAVFRDFLNRCLEMDVDRRGSAKELLQHPFLKLAKPLSSLTPLIIAAKEAIKNSSR
modifications: left off: small tags and cut ends
  MBP Kinase Activity: Weak

B4: MAPKAPK3 (protein)
chain: MDGETAEEQGGPVPPPVAPGGPGLGGAPGGRREPKKYAVTDDYQLSKQVLGLGVNGKVLECFHRRTGQKCALKLLYDSPKARQEVDHHWQASGGPHIVCILDVYENMHHGKRCLLIIMECMEGGELFSRIQERGDQAFTEREAAEIMRDIGTAIQFLHSHNIAHRDVKPENLLYTSKEKDAVLKLTDFGFAKETTQNALQTPCYTPYYVAPEVLGPEKYDKSCDMWSLGVIMYILLCGFPPFYSNTGQAISPGMKRRIRLGQYGFPNPEWSEVSEDAKQLIRLLLKTDPTERLTITQFMNHPWINQSMVVPQTPLHTARVLQEDKDHWDEVKEEMTSALATMRVDYDQVKIKDLKTSNNRLLNKRRKKQAGSSSASQGCNNQ
modifications: left off: small tags and cut ends
  MBP Kinase Activity: Strong

B5: NEK3 (protein)
chain: MDDYMVLRMIGEGSFGRALLVQHESSNQMFAMKEIRLPKSFSNTQNSRKEAVLLAKMKHPNIVAFKESFEAEGHLYIVMEYCDGGDLMQKIKQQKGKLFPEDMILNWFTQMCLGVNHIHKKRVLHRDIKSKNIFLTQNGKVKLGDFGSARLLSNPMAFACTYVGTPYYVPPEIWENLPYNNKSDIWSLGCILYELCTLKHPFQANSWKNLILKVCQGCISPLPSHYSYELQFLVKQMFKRNPSHRPSATTLLSRGIVARLVQKCLPPEIIMEYGEEVLEEIKNSKHNTPRKKTNPSRIRIALGNEASTVQEEEQDRKGSHTDLESINENLVESALRRVNREEKGNKSVHLRKASSPNLHRRQWEKNVPNTALTALENASILTSSLTAEDDRGGSVIKYSKNTTRKQWLKETPDTLLNILKNADLSLAFQTYTIYRPGSEGFLKGPLSEETEASDSVDGGHDSVILDPERLEPGLDEEDTDFEEEDDNPDWVSELKKRAGWQGLCDR
modifications: left off: a dimerising Fc or GST
  MBP Kinase Activity: Negative

B6: MAPK8(JNK1) (protein)
chain: MSRSKRDNNFYSVEIGDSTFTVLKRYQNLKPIGSGAQGIVCAAYDAILERNVAIKKLSRPFQNQTHAKRAYRELVLMKCVNHKNIIGLLNVFTPQKSLEEFQDVYIVMELMDANLCQVIQMELDHERMSYLLYQMLCGIKHLHSAGIIHRDLKPSNIVVKSDCTLKILDFGLARTAGTSFMMTPYVVTRYYRAPEVILGMGYKENVDLWSVGCIMGEMVCHKILFPGRDYIDQWNKVIEQLGTPCPEFMKKLQPTVRTYVENRPKYAGYSFEKLFPDVLFPADSEHNKLKASQARDLLSKMLVIDASKRISVDEALQHPYINVWYDPSEAEAPPPKIPDKQLDEREHTIEEWKELIYKEVMDLEERTKNGVIRGQPSPLAQVQQ
modifications: left off: small tags and cut ends
  MBP Kinase Activity: Negative

B7: MAPKAPK5(PRAK) (protein)
chain: MSEESDMDKAIKETSILEEYSINWTQKLGAGISGPVRVCVKKSTQERFALKILLDRPKARNEVRLHMMCATHPNIVQIIEVFANSVQFPHESSPRARLLIVMEMMEGGELFHRISQHRHFTEKQASQVTKQIALALRHCHLLNIAHRDLKPENLLFKDNSLDAPVKLCDFGFAKIDQGDLMTPQFTPYYVAPQVLEAQRRHQKEKSGIIPTSPTPYTYNKSCDLWSLGVIIYVMLCGYPPFYSKHHSRTIPKDMRRKIMTGSFEFPEEEWSQISEMAKDVVRKLLKVKPEERLTIEGVLDHPWLNSTEALDNVLPSAQLMMDKAVVAGIQQAHAEQLANMRIQDLKVSLKPLHSVNNPILRKRKLLGTKPKDSVYIHDHENGAEDSNVALEKLRDVIAQCILPQAGENEDEKLNEVMQEAWKYNRECKLLRDTLQSFSWNGRGFTDKVDRLKLAEIVKQVIEEQTTSHESQ
modifications: left off: small tags and cut ends
  MBP Kinase Activity: Strong

B8: PAK6 (protein)
chain: MFRKKKKKRPEISAPQNFQHRVHTSFDPKEGKFVGLPPQWQNILDTLRRPKPVVDPSRITRVQLQPMKTVVRGSAMPVDGYISGLLNDIQKLSVISSNTLRGRSPTSRRRAQSLGLLGDEHWATDPDMYLQSPQSERTDPHGLYLSCNGGTPAGHKQMPWPEPQSPRVLPNGLAAKAQSLGPAEFQGASQRCLQLGACLQSSPPGASPPTGTNRHGMKAAKHGSEEARPQSCLVGSATGRPGGEGSPSPKTRESSLKRRLFRSMFLSTAATAPPSSSKPGPPPQSKPNSSFRPPQKDNPPSLVAKAQSLPSDQPVGTFSPLTTSDTSSPQKSLRTAPATGQLPGRSSPAGSPRTWHAQISTSNLYLPQDPTVAKGALAGEDTGVVTHEQFKAALRMVVDQGDPRLLLDSYVKIGEGSTGIVCLAREKHSGRQVAVKMMDLRKQQRRELLFNEVVIMRDYQHFNVVEMYKSYLVGEELWVLMEFLQGGALTDIVSQVRLNEEQIATVCEAVLQALAYLHAQGVIHRDIKSDSILLTLDGRVKLSDFGFCAQISKDVPKRKSLVGTPYWMAPEVISRSLYATEVDIWSLGIMVIEMVDGEPPYFSDSPVQAMKRLRDSPPPKLKNSHKVSPVLRDFLERMLVRDPQERATAQELLDHPFLLQTGLPECLVPLIQLYRKQTSTC
modifications: left off: small tags and cut ends
  MBP Kinase Activity: Negative

B9: MYLK2 (protein)
chain: MATENGAVELGIQNPSTDKAPKGPTGERPLAAGKDPGPPDPKKAPDPPTLKKDAKAPASEKGDGTLAQPSTSSQGPKGEGDRGGGPAEGSAGPPAALPQQTATPETSVKKPKAEQGASGSQDPGKPRVGKKAAEGQAAARRGSPAFLHSPSCPAIISSSEKLLAKKPPSEASELTFEGVPMTHSPTDPRPAKAEEGKNILAESQKEVGEKTPGQAGQAKMQGDTSRGIEFQAVPSEKSEVGQALCLTAREEDCFQILDDCPPPPAPFPHRMVELRTGNVSSEFSMNSKEALGGGKFGAVCTCMEKATGLKLAAKVIKKQTPKDKEMVLLEIEVMNQLNHRNLIQLYAAIETPHEIVLFMEYIEGGELFERIVDEDYHLTEVDTMVFVRQICDGILFMHKMRVLHLDLKPENILCVNTTGHLVKIIDFGLARRYNPNEKLKVNFGTPEFLSPEVVNYDQISDKTDMWSMGVITYMLLSGLSPFLGDDDTETLNNVLSGNWYFDEETFEAVSDEAKDFVSNLIVKDQRARMNAAQCLAHPWLNNLAEKAKRCNRRLKSQILLKKYLMKRRWKKNFIAVSAANRFKKISSSGALMALGV
modifications: left off: a dimerising Fc or GST
  MBP Kinase Activity: Negative

B10: MINK1 (protein)
chain: MGDPAPARSLDDIDLSALRDPAGIFELVEVVGNGTYGQVYKGRHVKTGQLAAIKVMDVTEDEEEEIKQEINMLKKYSHHRNIATYYGAFIKKSPPGNDDQLWLVMEFCGAGSVTDLVKNTKGNALKEDCIAYICREILRGLAHLHAHKVIHRDIKGQNVLLTENAEVKLVDFGVSAQLDRTVGRRNTFIGTPYWMAPEVIACDENPDATYDYRSDIWSLGITAIEMAEGAPPLCDMHPMRALFLIPRNPPPRLKSKKWSKKFIDFIDTCLIKTYLSRPPTEQLLKFPFIRDQPTERQVRIQLKDHIDRSRKKRGEKEETE
modifications: left off: a dimerising Fc or GST
  MBP Kinase Activity: Weak
